B1: Chondroitin sulfate N-acetylgalactosaminyltransferase 2 (Homo sapiens), Q8N6G5 (parent)
chain: MPRRGLILHTRTHWLLLGLALLCSLVLFMYLLECAPQTDGNASLPGVVGENYGKEYYQALLQEQEEHYQTRATSLKRQIAQLKQELQEMSEKMRSLQERRNVGANGIGYQSNKEQAPSDLLEFLHSQIDKAEVSIGAKLPSEYGVIPFESFTLMKVFQLEMGLTRHPEEKPVRKDKRDELVEVIEAGLEVINNPDEDDEQEDEEGPLGEKLIFNENDFVEGYYRTERDKGTQYELFFKKADLTEYRHVTLFRPFGPLMKVKSEMIDITRSIINIIVPLAERTEAFVQFMQNFRDVCIHQDKKIHLTVVYFGKEGLSKVKSILESVTSESNFHNYTLVSLNEEFNRGRGLNVGARAWDKGEVLMFFCDVDIYFSAEFLNSCRLNAEPGKKVFYPVVFSLYNPAIVYANQEVPPPVEQQLVHKKDSGFWRDFGFGMTCQYRSDFLTIGGFDMEVKGWGGEDVHLYRKYLHGDLIVIRTPVPGLFHLWHEKRCADELTPEQYRMCIQSKAMNEASHSHLGMLVFREEIETHLHKQAYRTNSEAVG
B2: AN1-type zinc finger protein 2B (Homo sapiens), Q8WV99 (parent)
chain: MEFPDLGAHCSEPSCQRLDFLPLKCDACSGIFCADHVAYAQHHCGSAYQKDIQVPVCPLCNVPVPVARGEPPDRAVGEHIDRDCRSDPAQQKRKIFTNKCERAGCRQREMMKLTCERCSRNFCIKHRHPLDHDCSGEGHPTSRAGLAAISRAQAVASTSTVPSPSQTMPSCTSPSRATTRSPSWTAPPVIALQNGLSEDEALQRALEMSLAETKPQVPSCQEEEDLALAQALSASEAEYQRQQAQSRSSKPSNCSLC
partner: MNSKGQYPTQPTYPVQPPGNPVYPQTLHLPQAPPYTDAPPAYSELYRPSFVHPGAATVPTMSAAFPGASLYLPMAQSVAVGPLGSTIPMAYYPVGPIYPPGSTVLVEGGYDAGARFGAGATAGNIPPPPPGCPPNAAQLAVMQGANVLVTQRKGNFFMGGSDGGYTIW
B3: Acylamino-acid-releasing enzyme (Homo sapiens), P13798 (parent)
chain: MERQVLLSEPEEAAALYRGLSRQPALSAACLGPEVTTQYGGQYRTVHTEWTQRDLERMENIRFCRQYLVFHDGDSVVFAGPAGNSVETRGELLSRESPSGTMKAVLRKAGGTGPGEEKQFLEVWEKNRKLKSFNLSALEKHGPVYEDDCFGCLSWSHSETHLLYVAEKKRPKAESFFQTKALDVSASDDEIARLKKPDQAIKGDQFVFYEDWGENMVSKSIPVLCVLDVESGNISVLEGVPENVSPGQAFWAPGDAGVVFVGWWHEPFRLGIRFCTNRRSALYYVDLIGGKCELLSDDSLAVSSPRLSPDQCRIVYLQYPSLIPHHQCSQLCLYDWYTKVTSVVVDVVPRQLGENFSGIYCSLLPLGCWSADSQRVVFDSAQRSRQDLFAVDTQVGTVTSLTAGGSGGSWKLLTIDQDLMVAQFSTPSLPPTLKVGFLPSAGKEQSVLWVSLEEAEPIPDIHWGIRVLQPPPEQENVQYAGLDFEAILLQPGSPPDKTQVPMVVMPHGGPHSSFVTAWMLFPAMLCKMGFAVLLVNYRGSTGFGQDSILSLPGNVGHQDVKDVQFAVEQVLQEEHFDASHVALMGGSHGGFISCHLIGQYPETYRACVARNPVINIASMLGSTDIPDWCVVEAGFPFSSDCLPDLSVWAEMLDKSPIRYIPQVKTPLLLMLGQEDRRVPFKQGMEYYRALKTRNVPVRLLLYPKSTHALSEVEVESDSFMNAVLWLRTHLGS
B4: Zinc finger protein 488 (Homo sapiens), Q96MN9 (parent)
chain: MPEWPPCLSVAPALVITMAAGKGAPLSPSAENRWRLSEPELGRGCKPVLLEKTNRLGPEAAVGRAGRDVGSAELALLVAPGKPRPGKPLPPKTRGEQRQSAFTELPRMKDRQVDAQAQEREHDDPTGQPGAPQLTQNIPRGPAGSKVFSVWPSGARSEQRSAFSKPTKRPAERPELTSVFPAGESADALGELSGLLNTTDLACWGRLSTPKLLVGDLWNLQALPQNAPLCSTFLGAPTLWLEHTQAQVPPPSSSSTTSWALLPPTLTSLGLSTQNWCAKCNLSFRLTSDLVFHMRSHHKKEHAGPDPHSQKRREEALACPVCQEHFRERHHLSRHMTSHS
partner: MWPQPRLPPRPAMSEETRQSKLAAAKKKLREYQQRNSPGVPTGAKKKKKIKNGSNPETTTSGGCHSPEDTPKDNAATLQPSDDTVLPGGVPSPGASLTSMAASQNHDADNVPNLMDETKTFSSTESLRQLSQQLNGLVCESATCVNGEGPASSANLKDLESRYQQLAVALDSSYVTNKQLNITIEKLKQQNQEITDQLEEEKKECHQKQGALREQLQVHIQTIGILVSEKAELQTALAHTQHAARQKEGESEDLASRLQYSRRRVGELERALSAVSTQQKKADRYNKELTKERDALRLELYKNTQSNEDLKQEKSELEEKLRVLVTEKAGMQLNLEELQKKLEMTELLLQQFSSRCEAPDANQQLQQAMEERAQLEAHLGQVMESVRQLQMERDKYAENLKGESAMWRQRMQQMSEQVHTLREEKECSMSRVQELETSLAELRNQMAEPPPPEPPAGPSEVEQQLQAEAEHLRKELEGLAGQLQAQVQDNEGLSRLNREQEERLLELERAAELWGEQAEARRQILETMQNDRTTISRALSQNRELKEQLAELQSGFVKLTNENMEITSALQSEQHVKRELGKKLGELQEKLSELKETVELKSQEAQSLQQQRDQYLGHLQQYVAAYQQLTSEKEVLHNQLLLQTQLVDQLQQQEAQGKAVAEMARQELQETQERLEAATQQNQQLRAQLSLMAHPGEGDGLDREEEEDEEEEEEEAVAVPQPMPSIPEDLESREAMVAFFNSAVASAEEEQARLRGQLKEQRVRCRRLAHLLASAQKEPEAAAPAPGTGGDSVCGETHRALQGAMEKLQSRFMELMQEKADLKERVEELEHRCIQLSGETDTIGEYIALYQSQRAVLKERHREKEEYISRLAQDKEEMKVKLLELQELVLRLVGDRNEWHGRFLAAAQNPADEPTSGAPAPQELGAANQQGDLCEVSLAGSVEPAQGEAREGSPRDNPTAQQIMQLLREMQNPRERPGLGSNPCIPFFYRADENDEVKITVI
B5: Keratin, type II cytoskeletal 2 epidermal (Homo sapiens), P35908 (parent)
chain: MSCQISCKSRGRGGGGGGFRGFSSGSAVVSGGSRRSTSSFSCLSRHGGGGGGFGGGGFGSRSLVGLGGTKSISISVAGGGGGFGAAGGFGGRGGGFGGGSSFGGGSGFSGGGFGGGGFGGGRFGGFGGPGGVGGLGGPGGFGPGGYPGGIHEVSVNQSLLQPLNVKVDPEIQNVKAQEREQIKTLNNKFASFIDKVRFLEQQNQVLQTKWELLQQMNVGTRPINLEPIFQGYIDSLKRYLDGLTAERTSQNSELNNMQDLVEDYKKKYEDEINKRTAAENDFVTLKKDVDNAYMIKVELQSKVDLLNQEIEFLKVLYDAEISQIHQSVTDTNVILSMDNSRNLDLDSIIAEVKAQYEEIAQRSKEEAEALYHSKYEELQVTVGRHGDSLKEIKIEISELNRVIQRLQGEIAHVKKQCKNVQDAIADAEQRGEHALKDARNKLNDLEEALQQAKEDLARLLRDYQELMNVKLALDVEIATYRKLLEGEECRMSGDLSSNVTVSVTSSTISSNVASKAAFGGSGGRGSSSGGGYSSGSSSYGSGGRQSGSRGGSGGGGSISGGGYGSGGGSGGRYGSGGGSKGGSISGGGYGSGGGKHSSGGGSRGGSSSGGGYGSGGGGSSSVKGSSGEAFGSSVTFSFR
B6: Probable RNA-binding protein 46 (Homo sapiens), Q8TBY0 (parent)
chain: MNEENIDGTNGCSKVRTGIQNEAALLALMEKTGYNMVQENGQRKFGGPPPGWEGPPPPRGCEVFVGKIPRDMYEDELVPVFERAGKIYEFRLMMEFSGENRGYAFVMYTTKEEAQLAIRILNNYEIRPGKFIGVCVSLDNCRLFIGAIPKEKKKEEILDEMKKVTEGVVDVIVYPSATDKTKNRGFAFVEYESHRAAAMARRKLIPGTFQLWGHTIQVDWADPEKEVDEETMQRVKVLYVRNLMISTTEETIKAEFNKFKPGAVERVKKLRDYAFVHFFNREDAVAAMSVMNGKCIDGASIEVTLAKPVNKENTWRQHLNGQISPNSENLIVFANKEESHPKTLGKLPTLPARLNGQHSPSPPEVERCTYPFYPGTKLTPISMYSLKSNHFNSAVMHLDYYCNKNNWAPPEYYLYSTTSQDGKVLLVYKIVIPAIANGSQSYFMPDKLCTTLEDAKELAAQFTLLHLDYNFHRSSINSLSPVSATLSSGTPSVLPYTSRPYSYPGYPLSPTISLANGSHVGQRLCISNQASFF
B7: Ubiquitin-conjugating enzyme E2 E3 (Homo sapiens), Q969T4 (parent)
chain: MSSDRQRSDDESPSTSSGSSDADQRDPAAPEPEEQEERKPSATQQKKNTKLSSKTTAKLSTSAKRIQKELAEITLDPPPNCSAGPKGDNIYEWRSTILGPPGSVYEGGVFFLDITFSSDYPFKPPKVTFRTRIYHCNINSQGVICLDILKDNWSPALTISKVLLSICSLLTDCNPADPLVGSIATQYLTNRAEHDRIARQWTKRYAT
B8: Protein sprouty homolog 1 (Homo sapiens), O43609 (parent)
chain: MDPQNQHGSGSSLVVIQQPSLDSRQRLDYEREIQPTAILSLDQIKAIRGSNEYTEGPSVVKRPAPRTAPRQEKHERTHEIIPINVNNNYEHRHTSHLGHAVLPSNARGPILSRSTSTGSAASSGSNSSASSEQGLLGRSPPTRPVPGHRSERAIRTQPKQLIVDDLKGSLKEDLTQHKFICEQCGKCKCGECTAPRTLPSCLACNRQCLCSAESMVEYGTCMCLVKGIFYHCSNDDEGDSYSDNPCSCSQSHCCSRYLCMGAMSLFLPCLLCYPPAKGCLKLCRRCYDWIHRPGCRCKNSNTVYCKLESCPSRGQGKPS

Variants of B1 are the subject of one assay. The following applies: with BCL2L13, Q9BXK5.
Chain of BCL2L13, Q9BXK5 (Q9BXK5 whole entry): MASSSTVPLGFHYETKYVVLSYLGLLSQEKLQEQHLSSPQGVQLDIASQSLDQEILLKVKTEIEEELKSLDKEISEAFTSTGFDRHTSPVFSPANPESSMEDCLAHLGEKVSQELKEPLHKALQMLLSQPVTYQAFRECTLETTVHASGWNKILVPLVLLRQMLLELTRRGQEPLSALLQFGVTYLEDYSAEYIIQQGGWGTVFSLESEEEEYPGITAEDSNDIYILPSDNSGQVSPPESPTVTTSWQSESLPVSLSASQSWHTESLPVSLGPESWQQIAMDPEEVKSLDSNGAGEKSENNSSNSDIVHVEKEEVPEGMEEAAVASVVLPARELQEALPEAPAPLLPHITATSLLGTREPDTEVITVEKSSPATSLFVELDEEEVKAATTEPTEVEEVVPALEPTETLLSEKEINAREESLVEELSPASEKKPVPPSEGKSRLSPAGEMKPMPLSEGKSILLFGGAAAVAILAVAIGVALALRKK
Take P479S: the “effect of a mutation on the interaction” value is on record as “with no effect”.

Variants of B2 are the subject of another assay. To be noted: with dazp2_human DAZAP2, Q15038.
P71H: the “effect of a mutation on the interaction” value is recorded as “with no effect”.

The variants in another assay derive from B3. The following applies: with leg8_human LGALS8, O00214.
Chain of leg8_human LGALS8, O00214 (O00214 whole entry): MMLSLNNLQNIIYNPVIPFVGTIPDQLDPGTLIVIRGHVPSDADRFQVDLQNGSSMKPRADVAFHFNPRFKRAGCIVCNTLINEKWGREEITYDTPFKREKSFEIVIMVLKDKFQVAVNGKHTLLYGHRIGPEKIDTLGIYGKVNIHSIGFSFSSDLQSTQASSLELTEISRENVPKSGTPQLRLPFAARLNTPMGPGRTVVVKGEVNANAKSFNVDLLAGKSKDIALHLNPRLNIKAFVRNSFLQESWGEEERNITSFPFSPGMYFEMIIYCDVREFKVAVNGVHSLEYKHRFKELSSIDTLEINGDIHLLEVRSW
On to F378S, for which the “effect of a mutation on the interaction” value is reported as “disrupting interaction strength”.

The next assay covers variants of B4. To be noted: with goga2_human GOLGA2, Q08379.
Turning to C230R, the “effect of a mutation on the interaction” value is reported as “with no effect”. Turning to A72V, the “effect of a mutation on the interaction” value was “with no effect”.

Variants of B5 are the subject of another assay. The following applies: with KRT19, P08727.
Chain of KRT19, P08727 (P08727 whole entry): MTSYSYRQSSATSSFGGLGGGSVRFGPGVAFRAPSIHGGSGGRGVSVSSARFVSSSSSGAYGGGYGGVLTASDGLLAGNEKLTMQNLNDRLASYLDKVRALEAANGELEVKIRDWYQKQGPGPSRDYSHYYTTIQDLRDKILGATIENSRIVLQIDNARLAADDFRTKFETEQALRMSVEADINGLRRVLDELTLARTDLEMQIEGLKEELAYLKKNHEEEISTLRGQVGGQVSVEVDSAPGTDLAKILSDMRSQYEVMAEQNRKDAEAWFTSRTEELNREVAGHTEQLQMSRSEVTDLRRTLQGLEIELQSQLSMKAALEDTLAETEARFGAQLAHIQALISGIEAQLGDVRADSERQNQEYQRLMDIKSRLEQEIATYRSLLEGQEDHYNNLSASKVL
Consider A517G, for which the “effect of a mutation on the interaction” value is “with no effect”.

The next assay covers variants of B6. The following applies: with rbpms_human RBPMS.
Regarding I126M, the “effect of a mutation on the interaction” value was “with no effect”.

In the next assay the parent is B7. To be noted: with rnf5_human RNF5, Q99942.
Chain of rnf5_human RNF5, Q99942 (Q99942 whole entry): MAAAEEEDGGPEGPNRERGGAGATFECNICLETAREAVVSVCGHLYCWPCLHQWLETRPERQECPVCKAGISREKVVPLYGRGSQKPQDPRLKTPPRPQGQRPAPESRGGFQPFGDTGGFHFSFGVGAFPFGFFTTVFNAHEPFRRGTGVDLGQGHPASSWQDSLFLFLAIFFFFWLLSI
Take S117T: the “effect of a mutation on the interaction” value is on record as “with no effect”.

In a further assay the parent is B8. To be noted: with nt2na_human NOTCH2NLA.
Regarding R24H, the “effect of a mutation on the interaction” value is “with no effect”.

Variants of B8 are the subject of the next assay. To be noted: with otx1_human OTX1, P32242.
Chain of otx1_human OTX1, P32242 (P32242 whole entry): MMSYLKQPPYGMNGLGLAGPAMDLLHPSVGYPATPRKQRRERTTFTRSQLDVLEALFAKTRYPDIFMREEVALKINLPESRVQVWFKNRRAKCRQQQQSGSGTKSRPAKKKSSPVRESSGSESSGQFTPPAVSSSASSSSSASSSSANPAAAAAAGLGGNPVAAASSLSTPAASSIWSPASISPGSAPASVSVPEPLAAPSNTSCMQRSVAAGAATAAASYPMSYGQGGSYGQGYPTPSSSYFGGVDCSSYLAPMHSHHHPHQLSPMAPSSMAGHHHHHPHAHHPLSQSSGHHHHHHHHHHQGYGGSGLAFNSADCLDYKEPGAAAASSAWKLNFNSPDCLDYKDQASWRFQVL
For the variant R24H, the “effect of a mutation on the interaction” value was “with no effect”.

In the next assay the parent is B8. The following applies: with meox2_human MEOX2, P50222.
Chain of meox2_human MEOX2, P50222 (P50222 whole entry): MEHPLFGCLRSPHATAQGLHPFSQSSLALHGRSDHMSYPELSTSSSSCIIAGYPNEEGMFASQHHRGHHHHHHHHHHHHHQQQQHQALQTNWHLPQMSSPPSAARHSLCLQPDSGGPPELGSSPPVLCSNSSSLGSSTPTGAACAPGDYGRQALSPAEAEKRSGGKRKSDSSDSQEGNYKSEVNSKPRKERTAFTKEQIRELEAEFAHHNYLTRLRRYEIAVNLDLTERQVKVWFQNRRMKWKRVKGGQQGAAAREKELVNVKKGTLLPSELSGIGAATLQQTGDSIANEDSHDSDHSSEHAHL
Consider R24H, for which the “effect of a mutation on the interaction” value is “with no effect”.

Another assay covers variants of B8. The following applies: with kr101_human KRTAP10-1, P60331.
Chain of kr101_human KRTAP10-1, P60331 (P60331 whole entry): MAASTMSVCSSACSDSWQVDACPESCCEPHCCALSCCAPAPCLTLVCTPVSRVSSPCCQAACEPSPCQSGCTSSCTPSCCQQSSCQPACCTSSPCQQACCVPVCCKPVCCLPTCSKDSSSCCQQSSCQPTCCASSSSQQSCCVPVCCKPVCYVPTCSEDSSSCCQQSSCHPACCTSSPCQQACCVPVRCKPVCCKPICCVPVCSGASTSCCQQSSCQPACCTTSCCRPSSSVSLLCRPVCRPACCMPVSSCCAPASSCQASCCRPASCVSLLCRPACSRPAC
For R24H, the “effect of a mutation on the interaction” value is on record as “with no effect”.

Source of the values: IntAct's records for PubMed 31515488.
